Columns and labels:
human EpCAM-Fc [1] = molecular target: T1, human EpCAM-Fc (human, UniProt P16422 24-265); experiment: ELISA, plate coated with human EpCAM-Fc at 1 µg/ml, goat anti-human kappa-HRP, ABTS, Abs 405 nm
T1 construct: extracellular domain; also called human EpCAM/Fc fusion; recombinant human EpCAM antigen; not shown: human Fc region from IgG1; limits not readable
T1 sequence (looked up): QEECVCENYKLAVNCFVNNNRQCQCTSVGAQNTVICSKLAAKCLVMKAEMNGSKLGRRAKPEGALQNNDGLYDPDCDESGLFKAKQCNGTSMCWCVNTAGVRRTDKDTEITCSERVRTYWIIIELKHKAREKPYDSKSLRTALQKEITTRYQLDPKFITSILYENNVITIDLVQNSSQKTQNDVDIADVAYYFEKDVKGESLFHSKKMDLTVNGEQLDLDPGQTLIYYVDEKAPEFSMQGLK
Procedure: (§1) For ELISA of antibodies in IgG format, the MAXI-sorb plate was coated with 1 μg/ml (100 μl per well) of human or cynomolgus EpCAM-Fc in PBS overnight at 4° C. The plates were blocked with 3% BSA in PBS for 2 hrs. The IgGs to be tested were added in 2-fold dilutions from 133 nM to 32 fM and incubated for 1 hr at room temperature. For detection of bound IgG, a goat anti-human kappa-HRP antibody (Southern Biotech, cat no 2060-05) was added in 1:5000 dilution in block solution and incubated for 1 hr at room temperature.
(§2) The ELISA of antibodies in IgG format was developed using a 1-step ABTS Kit (Thermo Scientific prod #37615) and a 25 min incubation time. The absorbance was measured on a SLT SPECTRA plate reader. The software Prism (GraphPad, San Diego, Calif.) was used to estimate the affinities using a non-linear fit of one-site model on the retrieved ELISA data.

human EpCAM-Fc [2] = molecular target: T1, human EpCAM-Fc; experiment: SPR, BIAcore T100, EpCAM-Fc coupled to CM5 chip (100 RU), 37 °C, 1:1 Langmuir model; SPR (BIAcore T100), 37 C, native EpCAM-Fc on the CM5 chip
Procedure: Binding of 3-17I to human and cynomolgus monkey EpCAM was analyzed using surface plasmon resonance (SPR) on a BIAcore T100 (BIAcore, Inc, Piscataway, N.J.). The extracellular domains of human or cynomolgus monkey EpCAM fused to human Fc (IgG1), were coupled to a CM5 chip (BIAcore, Inc, Piscataway, N.J.) at density of 100 RU. The SPR studies were performed using standard techniques at 37° C. with a flow rate of 50 μl/min. The data were analyzed using the 1:1 Langmuir binding model of the BIAcore software.

[3] = molecular target: T2, EpCAM on the surface of EpCAM-positive tumor cell lines (UniProt P16422 24-314, limits assumed); experiment: flow cytometry on Kato III cells, RPE goat anti-human IgG detection, median fluorescence intensity
T2 construct: whole, on cells; One entry for the cell-borne antigen; the cell line of each result is named in the row; also called naturally EpCAM+ Kato III cell line; EpCAM-positive Kato III cells
T2 sequence (looked up): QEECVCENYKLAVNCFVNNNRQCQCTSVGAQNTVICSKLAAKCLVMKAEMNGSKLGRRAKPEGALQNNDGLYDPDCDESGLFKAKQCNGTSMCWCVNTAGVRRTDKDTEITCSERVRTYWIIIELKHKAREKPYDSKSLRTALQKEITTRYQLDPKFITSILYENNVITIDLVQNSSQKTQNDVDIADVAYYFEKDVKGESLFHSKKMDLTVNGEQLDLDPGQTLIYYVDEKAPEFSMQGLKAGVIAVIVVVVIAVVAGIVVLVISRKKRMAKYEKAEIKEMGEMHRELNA
Procedure: Flow cytometric analysis was performed to analyze binding of the 3-17I IgG to EpCAM-positive cells. As positive controls, anti-EpCAM chimeric (mouse variable/human constant domains) and fully human antibodies, MOC31 and MT201, respectively, were used.
The anti-green fluorescent protein (GFP) antibody was used as a negative control. For flow cytometry, Kato III cells (ATCC number (gastric carcinoma, ATCC number HTB-103)) were grown under standard conditions, harvested from the culture flasks, washed 2 times with PBS, re-suspended in PBS with 0.2% BSA and 0.09% NaN₃ and finally distributed at 1×10⁵ cells per well into V-shaped 96-well plates (Greiner Bio-One, Frickenhausen, Germany). Cells were centrifuged at 400×g for 5 min and then incubated at 4° C. for 45 min with 50 μL of each different antibody dilution (all dilutions made in PBS with 0.2% BSA and 0.09% NaN₃). After washing in PBS with 0.2% BSA and 0.09% NaN₃, the cells were stained with 10 μg/mL of RPE-conjugated goat anti-human IgG (AbDSerotec, Düsseldorf, Germany) for 30 min at 4° C. The stained cells were washed, re-suspended in 200 μL PBS with 0.2% BSA and 0.09% NaN₃ and transferred to a U-shaped 96-well plate (Corning, Schiphol-Rijk, The Netherlands) for analysis on EasyCyte flow cytometer (Guava Technologies, Hayward, Calif., USA).

[4] = molecular target: T2, EpCAM on the surface of EpCAM-positive …; experiment: cell-based or functional assay
cynomolgus EpCAM-Fc = molecular target: T3, cynomolgus EpCAM-Fc (cynomolgus; human, UniProt P01857 99-330 = IgG part); experiment: ELISA, plate coated with cynomolgus EpCAM-Fc at 1 µg/ml, goat anti-human kappa-HRP, ABTS, Abs 405 nm
T3 construct: also called Cynomolgus EpCAM/Fc fusion; recombinant cynomolgus EpCAM antigen
T3 sequence (P01857 other isoform, or with tags, fused parts or gaps limits assumed, form in doubt): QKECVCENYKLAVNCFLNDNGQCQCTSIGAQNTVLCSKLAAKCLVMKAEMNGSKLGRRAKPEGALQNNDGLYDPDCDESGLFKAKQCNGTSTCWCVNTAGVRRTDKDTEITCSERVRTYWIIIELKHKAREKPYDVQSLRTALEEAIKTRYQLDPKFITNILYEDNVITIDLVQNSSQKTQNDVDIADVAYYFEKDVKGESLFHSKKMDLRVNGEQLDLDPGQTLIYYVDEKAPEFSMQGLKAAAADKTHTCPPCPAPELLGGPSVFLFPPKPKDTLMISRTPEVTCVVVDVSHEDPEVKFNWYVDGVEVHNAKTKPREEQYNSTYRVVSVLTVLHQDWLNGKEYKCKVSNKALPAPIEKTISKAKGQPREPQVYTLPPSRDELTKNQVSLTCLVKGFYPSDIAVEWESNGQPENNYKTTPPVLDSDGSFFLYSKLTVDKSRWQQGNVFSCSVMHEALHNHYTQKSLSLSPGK
Procedure: as §1, §2

human EpCAM-Fc [5] = molecular target: T1, human EpCAM-Fc; experiment: ELISA, plate coated with human EpCAM-Fc at 5 µg/ml, scFv detected with mouse anti-cMyc 9E10 and rabbit anti-mouse-HRP, TMB, Abs 450 nm
Procedure: FIGS. 10A and 10B show ELISA binding analysis of 3-17I scFv, 7-F17 scFv, 17-C20 scFv and 24-G6 scFv to human EpCAM-Fc (FIG. 10A) and to cynomolgus EpCAM-Fc (FIG. 10B). MAXI-Sorb plates were coated with human or cynomolgus EpCAM-Fc at a concentration of 5 μg/ml. The antibody was added in 2-fold dilutions from 667 nM to 3.2 nM.
For ELISA of antibodies in scFv format, the MAXI-sorb plate was coated with 5 μg/ml (100 μl per well) of human or cynomolgus EpCAM-Fc in PBS overnight at 4° C. The plates were blocked with 4% skimmed milk (Merck product no 1.15363.0500) in PBS for 2 hrs. […] For detection of bound scFv, a rabbit anti-mouse-HRP antibody (Dako, cat no P0260) was added in 1:3000 dilution in block solution and incubated for 1 hr at room temperature.

B1: 17-C20 IgG (antibody, V domains shown)
VH: QVQLVQSGAEVKKPGSSVKVSCKASGGTFSSYAISWVRQAPGQGLEWMGGIIPIFGTANYAQKFQGRVTITADESTSTAYMELSSLRSEDTAVYYCARGLLWNYWGQGTLVTVSS
VL: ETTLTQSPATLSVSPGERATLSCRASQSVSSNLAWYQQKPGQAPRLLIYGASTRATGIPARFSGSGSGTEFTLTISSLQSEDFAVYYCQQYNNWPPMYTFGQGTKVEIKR
notes: also called 17-C20 full length IgG
Q: Does B1 bind (human EpCAM-Fc [1])?
A: binds

B2: 16-G5 IgG (antibody, V domains shown)
VH: QVQLVQSGAEVKKPGSSVKVSCKASGGTFSSYAISWVRQAPGQGLEWMGGIIPIFGTANYAQKFQGRVTITADESTSTAYMELSSLRSEDTAVYYCARGLLWNYWGQGTLVTVSS
VL: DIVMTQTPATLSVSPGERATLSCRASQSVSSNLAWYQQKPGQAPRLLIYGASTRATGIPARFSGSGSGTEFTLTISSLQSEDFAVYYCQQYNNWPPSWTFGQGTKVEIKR
notes: also called 16-G5 full length IgG
Q: Does B2 bind (human EpCAM-Fc [1])?
A: binds

B3: 3-17I IgG (antibody, V domains shown)
VH: QVQLVQSGAEVKKPGSSVKVSCKASGGTFSSYAISWVRQAPGQGLEWMGGIIPIFGTANYAQKFQGRVTITADESTSTAYMELSSLRSEDTAVYYCARGLLWNYWGQGTLVTVSS
VL: EIVMTQSPATLSVSPGERATLSCRASQSVSSNLAWYQQKPGQAPRLIIYGASTTASGIPARFSASGSGTDFTLTISSLQSEDFAVYYCQQYNNWPPAYTFGQGTKLEIKR
notes: also called 3-17I full length IgG
Q: How did the “EC50 (read off the curve)” value (human EpCAM-Fc [1]) turn out when B3 was run?
A: ~0.7 nM

Q: What about the Kd (human EpCAM-Fc [2]) of the same binder?
A: 1 nM

Q: And the koff (human EpCAM-Fc [2])?
A: 0.03 s⁻¹

Q: What about the kon (human EpCAM-Fc [2]) of the same binder?
A: 3e+07 M⁻¹ s⁻¹

Q: And the “EC50 (read off the curve)” value [3]?
A: ~100 ng/mL

Q: And the “ADCC EC50, BT-474 cells, human PBMC, E:T 20:1” value [4]?
A: 0.12 ng/mL

Q: What about the “ADCC EC50, MDA-MB-231 cells, human PBMC, E:T 20:1” value [4] of the same binder?
A: 15 ng/mL

Q: What about the “ADCC EC50, MDA-MB-453 cells, human PBMC, E:T 20:1” value [4] of the same binder?
A: 0.08 ng/mL

Q: And the “CDC EC50, KATO III cells, human serum” value [4]?
A: 0.28 ng/mL

Q: What about the “CDC EC50, MT-3 cells, human serum” value [4] of the same binder?
A: 0.38 ng/mL

Q: What about the “EC50 (read off the curve)” value (cynomolgus EpCAM-Fc) of the same binder?
A: ~0.6 nM

B4: 12-C15 IgG (antibody, V domains shown)
VH: QVQLVQSGAEVKKPGSSVKVSCKASGGTFSSYAISWVRQAPGQGLEWMGGIIPIFGTANYAQKFQGRVTITADESTSTAYMELSSLRSEDTAVYYCARGLLWNYWGQGTLVTVSS
VL: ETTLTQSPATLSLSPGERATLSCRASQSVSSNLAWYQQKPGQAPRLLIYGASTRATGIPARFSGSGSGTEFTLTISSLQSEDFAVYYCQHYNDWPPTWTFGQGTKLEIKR
notes: also called 12-C15 full length IgG
Q: Does B4 bind (human EpCAM-Fc [1])?
A: binds

B5: 7-F17 scFv (scFv)
scFv: QVQLVQSGAEVKKPGSSVKVSCKASGGTFSSYAISWVRQAPGQGLEWMGGIIPIFGTANYAQKFQGRVTITADESTSTAYMELSSLRSEDTAVYYCARGLLWNYWGQGTLVTVSSKLSGSASAPKLEEGEFSEARVETTLTQSPATLSVSPGERATLSCRASQSVSSNLAWYQQKPGQAPRLLIYGASTRATGIPARFSGSGSGTEFTLTISSLQSEDFAVYYCQQYNNWPPGFTFGPGTKVDIK
Q: Does B5 bind (human EpCAM-Fc [5])?
A: binds

B6: 17-C20 scFv (scFv)
scFv: QVQLVQSGAEVKKPGSSVKVSCKASGGTFSSYAISWVRQAPGQGLEWMGGIIPIFGTANYAQKFQGRVTITADESTSTAYMELSSLRSEDTAVYYCARGLLWNYWGQGTLVTVSSKLSGSASAPKLEEGEFSEARVETTLTQSPATLSVSPGERATLSCRASQSVSSNLAWYQQKPGQAPRLLIYGASTRATGIPARFSGSGSGTEFTLTISSLQSEDFAVYYCQQYNNWPPMYTFGQGTKVEIK
Q: Does B6 bind (human EpCAM-Fc [5])?
A: binds

B7: 24-G6 scFv (scFv)
scFv: QVQLVQSGAEVKKPGSSVKVSCKASGGTFSSYAISWVRQAPGQGLEWMGGIIPIFGTANYAQKFQGRVTITADESTSTAYMELSSLRSEDTAVYYCARGLLWNYWGQGTLVTVSSKLSGSASAPKLEEGEFSEARVETTLTQSPATLSVSPGERATLSCRASQSVSSNLAWYQQKPGQAPRLLIYGASTRATGIPARFSGSGSGTEFTLTISSLQSEDFAVYYCQKYNNWPPAFTFGPGTKVDIK
Q: Does B7 bind (human EpCAM-Fc [5])?
A: binds

B8: MOC31 IgG (antibody, V domains shown)
VH: QVKLQQSGPELKKPGETVKISCKASGYTFTNYGMNWVKQAPGKGLKWMGWINTYTGESTYADDFKGRFAFSLETSASAAYLQINNLKNEDTATYFCARFAIKGDYWGQGTTVTVSS
VL: DIVLTQSPFSNPVTLGTSASISCRSTKSLLHSNGITYLYWYLQKPGQSPQLLIYQMSNLASGVPDRFSSSGSGTDFTLRISRVEAEDVGVYYCAQNLEIPRTFGGGTKLEIK
Q: B8 was tested. Which “EC50 (read off the curve)” value (human EpCAM-Fc [1]) did it give?
A: ~1 nM

Q: And the “EC50 (read off the curve)” value [3]?
A: ~300 ng/mL

B9: MT201 IgG (antibody, V domains shown)
VH: EVQLLESGGGVVQPGRSLRLSCAASGFTFSSYGMHWVRQAPGKGLEWVAVISYDGSNKYYADSVKGRFTISRDNSKNTLYLQMNSLRAEDTAVYYCAKDMGWGSGWRPYYYYGMDVWGQGTTVTVSS
VL: ELQMTQSPSSLSASVGDRVTITCRTSQSISSYLNWYQQKPGQPPKLLIYWASTRESGVPDRFSGSGSGTDFTLTISSLQPEDSATYYCQQSYDIPYTFGQGTKLEIK
Q: With B9 as the binder, how does the “ADCC EC50, BT-474 cells, human PBMC, E:T 20:1” value [4] read?
A: 382 ng/mL

Q: What about the “ADCC EC50, MDA-MB-453 cells, human PBMC, E:T 20:1” value [4] of the same binder?
A: 7 ng/mL

Q: And the “CDC EC50, KATO III cells, human serum” value [4]?
A: 76 ng/mL

Q: And the “CDC EC50, MT-3 cells, human serum” value [4]?
A: 89 ng/mL

Q: And the “CDC: fold higher antibody concentration needed than for 3-17I IgG (ratio of the EC50 values; KATO III and MT-3 cells, human serum)” value [4]?
A: 250 fold

B10: 3-17I scFv (scFv)
scFv: QVQLVQSGAEVKKPGSSVKVSCKASGGTFSSYAISWVRQAPGQGLEWMGGIIPIFGTANYAQKFQGRVTITADESTSTAYMELSSLRSEDTAVYYCARGLLWNYWGQGTLVTVSSKLSGSASAPKLEEGEFSEARVEIVMTQSPATLSVSPGERATLSCRASQSVSSNLAWYQQKPGQAPRLIIYGASTTASGIPARFSASGSGTDFTLTISSLQSEDFAVYYCQQYNNWPPAYTFGQGTKLEIK
notes: expressed in E. coli TG1 from pHOG21; also called scFv format of 3-17I; not shown: C-terminal c-myc and His6 tags from pHOG21, with their junction residues
Q: Does B10 bind (human EpCAM-Fc [5])?
A: binds
